The target of test [1] is T1, glycocalicin (the proteolytic fragment of GPIb) (human, UniProt P07359 17-506).
T1 construct: domain: glycocalicin (the proteolytic fragment of GPIb); Purified from human platelets; coated on the SPR sensor
The experiment in a line: SPR, comparison of Kd with that of VWF A1 on glycocalicin. The text has this:
(§1) The sensorgrams at different concentrations were obtained and normalized by subtracting background signals from the glycocalicin surface.
For orientation: In SPR one partner is held on a chip, and binding of the other changes the refractive index at the surface.

For test [2], the target named is T1, glycocalicin (the proteolytic fragment …). The experiment in a line: SPR, ligand perfused over glycocalicin-coated sensor, Langmuir one-to-one fit.
From the text: as §1

B1: Activated protein C (APC), human plasma-derived (enzyme)
chain 1: ANSFLEELRHSSLERECIEEICDFEEAKEIFQNVDDTLAFWSKHVDGDQCLVLPLEHPCASLCCGHGTCIDGIGSFSCDCRSGWEGRFCQREVSFLNCSLDNGGCTHYCLEEVGWRRCSCAPGYKLGDDLLQCHPAVKFPCGRPWKRMEKKRSHL
chain 2: LIDGKMTRRGDSPWQVVLLDSKKKLACGAVLIHPSWVLTAAHCMDESKKLLVRLGEYDLRRWEKWELDLDIKEVFVHPNYSKSTTDNDIALLHLAQPATLSQTIVPICLPDSGLAERELNQAGQETLVTGWGYHSSREKEAKRNRTFVLNFIKIPVVPHNECSEVMSNMVSENMLCAGILGDRQDACEGDSGGPMVASFHGTWFLVGLVSWGEGCGLLHNYGVYTKVSRYLDWIHGHIRDKEAPQKSWAP
notes: mature
Take B1: in test [1], the “fold difference against the interaction of GPIb and VWF A1” value is around 10 fold. Binding in test [2] was put at a Kd of 308 nM.
